One block for each molecule: values may come before it. Square brackets hold non-standard residues; d marks the D form. Side chains are listed from the residue outwards. * marks the point of attachment. 5FAM = O=C1OC2(c3ccc(O)cc3Oc3cc(O)ccc32)c2ccc(C(=O)*)cc21; Linker2 = 6-aminohexyl amide linker
How the values were obtained:
[1] = Cytotoxicity, viability of HepG2 cells by Cell Counting Kit-8 (CCK-8); format: cell-based; conditions: human, HepG2, 1.5625-50 μM, read-out: survival ratio of cells
Experimental: The cytotoxicity effect of cyclic peptide-tri-GalNAc were evaluated with the viability of HepG2 cells and analyzed by Cell Counting Kit-8 (CCK-8) (Dojindo Laboratories, Japan). The assay was performed according to manufacturer's protocol. Briefly, HepG2 were seeded in 96-well plates with a density of 6×10^4 cells per well and incubated at 37° C. with 5% CO2. As cells reached 70% confluence, medium was changed to MEM with 2% FBS and serial diluted cyclic peptide-tri-GalNAc with final concentration of 50, 25, 12.5, 6.25, 3.125 and 1.5625 μM were treated. After 24 h of treatment, 10 μL of CCK-8 solution was added to each well, and incubated for 1˜4 h at 37° C. The absorbance at 450 nm was measured by microplate reader (Thermo scientific, Multiskan sky, MA, USA). The survival ratio of cells treated with ID013, ID023 and commercialized tri-GalNAC are from 97˜100%.

[2] = Stability assay in human plasma (UPLC-FLR); format: in vitro ADME; conditions: 90% human plasma; for stability in human plasma: within 6 h; for remaining at 72 h, 20 nM: human plasma (90%), 37° C., read-out: remaining amount after 72 h of incubation
Experimental: FAM-labeled tri-GalNAc ligands were prepared with sterile water with final concentration of 200 nM. […] At the end of incubations, each mixture was added 300 μl of methanol to quench the reaction. The quenched samples were centrifuged at 20,000×g for 5 min and the supernatant was further filtered with 0.45 μm filters (Merck Millipore) to remove debris. The filtered samples were measured by UPLC-FLR detector (Waters, MA, USA).
5-FAM-CPMB-0013 (ID013), 5-FAM-CPMB-0023 (ID023) and commercialized tri-GalNAC were incubated with 90% of human plasma for different time points. The amount of each ligand was analyzed and quantified by UPLC system.

[3] = target: asialoglycoprotein receptor (ASGPR) on HepG2 cells (human) (UniProt P07306); test: flow cytometry, % FAM-positive HepG2 cells after 24 h with 200 nM ligand; negative control
[4] = target: asialoglycoprotein receptor (ASGPR) on HepG2 cells (human) (UniProt P07306); test: flow cytometry, % FAM-positive HepG2 cells after 24 h with 40 nM ligand; negative control
[5] = target: asialoglycoprotein receptor (ASGPR) on HepG2 cells (human) (UniProt P07306); test: flow cytometry, % FAM-positive HepG2 cells after 24 h with 1.6 nM ligand; negative control
[6] = target: asialoglycoprotein receptor (ASGPR) on HepG2 cells (human) (UniProt P07306); test: flow cytometry, % FAM-positive HepG2 cells after 24 h with 8 nM ligand; negative control
[7] = target: T1, asialoglycoprotein receptor (ASGPR) on HepG2 cells (human, UniProt P07306 1-291; P07307 1-311); test: flow cytometry titration on HepG2 cells (% FAM-positive cells, 1.6-200 nM, 24 h)
T1 construct: whole, on cells; also called ASGPR receptor on liver cells
T1 sequence (looked up) 1: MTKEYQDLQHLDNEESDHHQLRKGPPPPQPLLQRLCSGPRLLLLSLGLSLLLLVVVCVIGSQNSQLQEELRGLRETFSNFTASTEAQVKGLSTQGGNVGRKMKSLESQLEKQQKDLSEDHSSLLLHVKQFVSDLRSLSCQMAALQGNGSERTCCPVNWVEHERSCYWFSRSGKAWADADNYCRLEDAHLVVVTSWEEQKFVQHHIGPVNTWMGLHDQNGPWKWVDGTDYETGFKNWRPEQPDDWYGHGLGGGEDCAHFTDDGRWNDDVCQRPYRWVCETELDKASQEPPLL
T1 sequence (looked up) 2: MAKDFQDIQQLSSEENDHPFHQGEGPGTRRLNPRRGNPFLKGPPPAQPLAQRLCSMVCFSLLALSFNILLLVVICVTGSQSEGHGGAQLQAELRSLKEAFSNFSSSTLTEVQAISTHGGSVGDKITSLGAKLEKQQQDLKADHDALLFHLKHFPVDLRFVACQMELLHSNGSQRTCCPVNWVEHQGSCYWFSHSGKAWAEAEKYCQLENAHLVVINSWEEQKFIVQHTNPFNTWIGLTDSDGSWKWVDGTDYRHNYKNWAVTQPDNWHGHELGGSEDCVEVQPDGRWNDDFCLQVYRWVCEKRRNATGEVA
Experimental: Cells were seeded in 24-well plates with a density of 1.5×10⁵ cells per well and incubated under 37° C., 5% CO₂. After 18 h of incubation, media were replaced to MEM with 2% FBS and FAM-labeled ligands were added with final concentrations of 1.6, 8, 40 or 200 nM. After 24 h of incubation, cells were washed twice with 1×PBS and analyzed by LSRFortessa (BD Biosciences, NJ, USA). The binding efficiency was evaluated by the proportion of FAM positive cells.
HepG2 cell was treated by 14 cyclic peptide-tri-GalNAc ligand variants with serial diluted concentration of 1.6, 8, 40 or 200 nM. Commercialized tri-GalNAc used in Givosirna was used as positive control and cyclic peptide w/o tri-GalNAc was negative control. Among 14 variants, 5-FAM-CPMB-0013 (ID013), 5-FAM-CPMB-0023 (ID023) and 5-FAM-CPMB-0035 (ID035) had relatively higher binding ability as compared to others and commercialized tri-GalNAc. Equilibrium dissociation constant (kd) for 5-FAM-CPMB-0013 (ID013), 5-FAM-CPMB-0023 (ID023), 5-FAM-CPMB-0035 (ID035) and commercialized tri-GalNAC were 7.0, 8.6, 5.7 and 18 nM, respectively.

Molecule: CC(=O)N[C@H]1[C@H](OCCCC(=O)NCCCC[C@@H]2NC(=O)CNC(=O)[C@H](CCCCNC(=O)CCCO[C@@H]3O[C@H](CO)[C@H](O)[C@H](O)[C@H]3NC(C)=O)NC(=O)[C@H](CCC(=O)NCCCCCCNC(=O)c3ccc4c(c3)C(=O)OC43c4ccc(O)cc4Oc4cc(O)ccc43)NC(=O)[C@H](CCCCNC(=O)CCCO[C@@H]3O[C@H](CO)[C@H](O)[C@H](O)[C@H]3NC(C)=O)NC(=O)CNC2=O)O[C@H](CO)[C@H](O)[C@@H]1O [5-FAM-CPMB-0013]
viability at 24 h [1]: 97 to 100%
stability in human plasma [2]: highly stable
remaining at 72 h, 20 nM [2]: 92.7%

Molecule: CC(=O)N[C@H]1[C@H](OCCCC(=O)NCCCC[C@H]2NC(=O)CNC(=O)[C@@H](CCCCNC(=O)CCCO[C@@H]3O[C@H](CO)[C@H](O)[C@H](O)[C@H]3NC(C)=O)NC(=O)[C@@H](CCC(=O)NCCCCCCNC(=O)c3ccc4c(c3)C(=O)OC43c4ccc(O)cc4Oc4cc(O)ccc43)NC(=O)[C@@H](CCCCNC(=O)CCCO[C@@H]3O[C@H](CO)[C@H](O)[C@H](O)[C@H]3NC(C)=O)NC(=O)CNC2=O)O[C@H](CO)[C@H](O)[C@@H]1O [5-FAM-CPMB-0023]
viability at 24 h [1]: 97 to 100%
stability in human plasma [2]: highly stable
remaining at 72 h, 20 nM [2]: 85.8%

The remaining lines, values ahead:

Efficiency (%) (proportion of FAM positive cells) [3]: 0.4%
Efficiency (%) (proportion of FAM positive cells) [4]: 0.2%
Efficiency (%) (proportion of FAM positive cells) [5]: 0.1%
Efficiency (%) (proportion of FAM positive cells) [6]: 0.1%
B1: 5-FAM-CPMB-0031-Ac (negative control) (peptide)
peptide: cyclo(K[dE]([Linker2-5FAM])KGKG)
modifications: also: Lys side chains: Gal-1 with suffix -Ac per table, 'w/o tri-GalNAc' per text

Kd [7]: 7 nM
B2: 5-FAM-CPMB-0013 (peptide)
peptide: KEKGKG
modifications: head-to-tail cyclic; each Lys side chain carries GalNAc via linker Gal-3; Glu side chain carries Linker2 (6-aminohexyl amide) with 5-FAM
notes: also called ID013

Source: US20240218023A1, “CYCLIC PEPTIDE-N-ACETYLGALACTOSAMINE (GALNAC) CONJUGATES FOR DRUG DELIVERY TO LIVER CELLS” (MICROBIO (SHANGHAI) CO., LTD., priority 2021, published 2024)
